Test system: T1, 33-mer peptide fragment of α-gliadin, LQLQPFPQPQLPYPQPQLPYPQPQLPYPQPQPF (SEQ ID NO:1)
T1 sequence: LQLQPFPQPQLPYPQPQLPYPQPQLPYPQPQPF

Substance: Aorsin A
- degradation of the 33-mer peptide (ELISA of intact 33-mer), 240 min, pH 4.0: Incubation with either Aorsin A or B for about 240 minutes resulted in complete degradation of the 33-mer peptide
- hydrolysis of the 33-mer peptide (HPLC-MS), citrate buffer pH 4.0: When incubated with the 33-mer peptide in acidic conditions (pH≈4.0), Aorsin A hydrolyzed the 33-mer

Substance: Aorsin B
- degradation of the 33-mer peptide (ELISA of intact 33-mer), 240 min, pH 4.0: Incubation with either Aorsin A or B for about 240 minutes resulted in complete degradation of the 33-mer peptide
- hydrolysis of the 33-mer peptide (HPLC-MS), citrate buffer pH 4.0: when incubated with the 33-mer peptide in acidic conditions (pH≈4.0), Aorsin B hydrolyzed the 33-mer

Substance: Aspergillus niger prolyl endopeptidase
- hydrolysis of the 33-mer peptide (HPLC-MS and ELISA), pH 5.0: CPY, MX-PEP, and AN-PEP hydrolyze the 33-mer peptide. AN-PEP appears to have the strongest activity against the 33-mer peptide, followed by CPY and then MX-PEP

Substance: Myxococcus xanthus prolyl endopeptidase
- hydrolysis of the 33-mer peptide (HPLC-MS and ELISA), SIF pH 6.8: CPY, MX-PEP, and AN-PEP hydrolyze the 33-mer peptide. AN-PEP appears to have the strongest activity against the 33-mer peptide, followed by CPY and then MX-PEP
- hydrolysis of the 33-mer peptide (HPLC-MS), 4 hours, buffer pH 4.0 to 7.0: MX-PEP did not hydrolyze the 33-mer peptide at an acidic pH

Substance: Neutral protease I
- degradation of the 33-mer peptide (ELISA of intact 33-mer), 0.1 mg/ml enzyme, SIF pH 6.8: NP I and NP II each exhibited a limited ability to degrade the 33-mer peptide
- percent of the 33-mer peptide degraded (ELISA), 60 min, SIF pH 6.8: NP I alone degraded about 40% of the 33-mer peptide

Substance: chymotrypsin
- digestion of the 33-mer peptide (HPLC-MS), in vitro gastrointestinal model, digestive enzymes only: The digestive enzymes only (pepsin, trypsin, and chymotrypsin) failed to digest the 33-mer peptide

Substance: pepsin
- digestion of the 33-mer peptide (HPLC-MS), in vitro gastrointestinal model, digestive enzymes only: The digestive enzymes only (pepsin, trypsin, and chymotrypsin) failed to digest the 33-mer peptide
- hydrolysis of the 33-mer peptide (HPLC-MS), 15 hours, SGF pH 2.0: At gastric conditions (pH≈2.0), pepsin did not hydrolyze most of the 33-mer peptide

Substance: trypsin
- digestion of the 33-mer peptide (HPLC-MS), in vitro gastrointestinal model, digestive enzymes only: The digestive enzymes only (pepsin, trypsin, and chymotrypsin) failed to digest the 33-mer peptide
